In publication PMC10148413 (2023) one finds Kd data, which are given here for two molecules.

The target in one assay is histone H3 (unmodified) (Drosophila melanogaster, UniProt P02299).
For assay [1], the target named is histone H3 (K4 trimethylated) (Drosophila melanogaster, UniProt P02299).

B1: Caf1 (protein)
chain: MVDRSDNAAESFDDAVEERVINEEYKIWKKNTPFLYDLVMTHALEWPSLTAQWLPDVTKQDGKDYSVHRLILGTHTSDEQNHLLIASVQLPSEDAQFDGSHYDNEKGEFGGFGSVCGKIEIEIKINHEGEVNRARYMPQNACVIATKTPSSDVLVFDYTKHPSKPEPSGECQPDLRLRGHQKEGYGLSWNPNLNGYLLSASDDHTICLWDINATPKEHRVIDAKNIFTGHTAVVEDVAWHLLHESLFGSVADDQKLMIWDTRNNNTSKPSHTVDAHTAEVNCLSFNPYSEFILATGSADKTVALWDLRNLKLKLHSFESHKDEIFQVQWSPHNETILASSGTDRRLHVWDLSKIGEEQSTEDAEDGPPELLFIHGGHTAKISDFSWNPNEPWIICSVSEDNIMQVWQMAENVYNDEEPEIPASELETNTA
In the assay with histone H3 (unmodified), B1 had a dissociation constant (Kd) of roughly 0.6 µM.

B2: Caf1 (protein)
chain: MVDRSDNAAESFDDAVEERVINEEYKIWKKNTPFLYDLVMTHALEWPSLTAQWLPDVTKQDGKDYSVHRLILGTHTSDEQNHLLIASVQLPSEDAQFDGSHYDNEKGEFGGFGSVCGKIEIEIKINHEGEVNRARYMPQNACVIATKTPSSDVLVFDYTKHPSKPEPSGECQPDLRLRGHQKEGYGLSWNPNLNGYLLSASDDHTICLWDINATPKEHRVIDAKNIFTGHTAVVEDVAWHLLHESLFGSVADDQKLMIWDTRNNNTSKPSHTVDAHTAEVNCLSFNPYSEFILATGSADKTVALWDLRNLKLKLHSFESHKDEIFQVQWSPHNETILASSGTDRRLHVWDLSKIGEEQSTEDAEDGPPELLFIHGGHTAKISDFSWNPNEPWIICSVSEDNIMQVWQMAENVYNDEEPEIPASELETNTA
modifications: H3K4me3
In turn, B2 returned a Kd in assay [1] greater than 70 µM.
